The values that follow come from the supplement of paper PMC10598134.

± gives the standard deviation.

A short description of the data set: collision cross section of modified peptide (TIMS, N2, iRT-aligned); higher = larger / more extended gas-phase ion. Summed up: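 Collision cross section values rest on the Mason-Schamp equation applied to calibrated, run-aligned mobility data from synthetic peptides. Mobility (1/K0) was calibrated with three reference ions and aligned per run to the median iRT peptide deviation, and 1–3 technical replicates of the most abundant feature per charge state were averaged. Data came from a timsTOF Pro/HT in dda-PASEF mode (nitrogen, ~2.4 mbar) after a 120-min nanoflow C18 gradient at 60 °C.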

[1] abbreviates: charge state: 2, modification: Malonyl.
Where [2] appears, read: charge state: 2, modification: Dimethyl (K).
Setting [3] is: charge state: 3, modification: Dimethyl (K).
The mark [4] stands for this setting: charge state: 2, modification: Glutarylation.
Setting [5] is: charge state: 3, modification: Glutarylation.
The mark [6] stands for this setting: charge state: 2, modification: Formyl.
Where [7] appears, read: charge state: 3, modification: Formyl.
Setting [8] is: charge state: 2, modification: Butyryl.
Setting [9] is: charge state: 3, modification: Butyryl.
[10] abbreviates: charge state: 2, modification: Hydroxyproline.
Where [11] appears, read: charge state: 2, modification: hydroxyisobutyryl.
The mark [12] stands for this setting: charge state: 2, modification: Crotonyl.
Where [13] appears, read: charge state: 3, modification: Crotonyl.
[14] abbreviates: charge state: 3, modification: Methyl (R).
[15] abbreviates: charge state: 2, modification: GlyGly (K).
Where [16] appears, read: charge state: 3, modification: GlyGly (K).
[17] abbreviates: charge state: 2, modification: Nitro (Y).
The mark [18] stands for this setting: charge state: 3, modification: HexNAc (ST).
Setting [19] is: charge state: 2, modification: HexNAc (ST).
[20] abbreviates: charge state: 2, modification: Succinyl.
The mark [21] stands for this setting: charge state: 3, modification: Succinyl.
The mark [22] stands for this setting: charge state: 2, modification: Biotin.
[23] abbreviates: charge state: 3, modification: Biotin.
Setting [24] is: charge state: 2, modification: Acetyl (K).
The mark [25] stands for this setting: charge state: 3, modification: Acetyl (K).
Setting [26] is: charge state: 3, modification: hydroxyisobutyryl.
Where [27] appears, read: charge state: 2, modification: Trimethyl (K).
[28] abbreviates: charge state: 3, modification: Trimethyl (K).
Where [29] appears, read: charge state: 2, modification: Phospho (Y).

With SKHLQEQLNELK [_SK(Malonyl)HLQEQLNELK_], the collision cross section is 415.64 Å² under setting [1] and 480.76 ± 0.91 Å² (charge state: 3, modification: Malonyl).

As to “VFIGNLNTLVVKK [_VFIGNLNTLVVK(Dimethyl (K))K_]”, the collision cross section under setting [2] is 427.12 ± 1.4 Å² and the collision cross section under setting [3] was determined as 478.47 ± 1.2 Å². As to “SDSGKPYYYNSQTK [_SDSGK(Gluratylation)PYYYNSQTK_]”, the collision cross section turned out to be 430.3 ± 1.5 Å² under setting [4] and 493.09 Å² under setting [5].

Take “SLGEPAAGEGSAKR [_SLGEPAAGEGSAK(Formyl)R_]”: the collision cross section stood at 375.91 ± 0.55 Å² under setting [6] and 481.8 Å² under setting [7]. As to TLDEILQEKK [_TLDEILQEK(Butyryl)K_], the collision cross section by setting is: under setting [8], 383.05 ± 1.3 Å²; under setting [9], 449.71 ± 2 Å². In turn, GDPGLIGPK [_GDP(Hydroxyproline)GLIGPK_] displayed a collision cross section under setting [10] of 312.86 ± 1.3 Å². In turn, “ASEALLKQLK [_ASEALLK(Gluratylation)QLK_]” showed a collision cross section under setting [4] of 377.97 ± 0.1 Å². As for “ASAISIKLGSSK [_ASAISIK(hydroxyisobutyryl)LGSSK_]”, the collision cross section under setting [11] was determined as 374.73 ± 0.8 Å². For the sequence TPNLYIYSKK [_TPNLYIYSK(Crotonyl)K_], the collision cross section is recorded as 385.36 Å² under setting [12] and 432.18 Å² under setting [13].

“VNIGQGSHPQKVK [_VNIGQGSHPQK(Butyryl)VK_]”: the collision cross section is 432.28 ± 0.24 Å² under setting [8] and 485.89 ± 2.6 Å² under setting [9]. Consider “LQAAYAGDKADDIQK [_LQAAYAGDK(hydroxyisobutyryl)ADDIQK_]”, for which the collision cross section under setting [11] is 440.97 ± 0.91 Å². Turning to “FGTINIVHPKLGSYTK [_FGTINIVHPK(Butyryl)LGSYTK_]”, the collision cross section is, setting by setting: under setting [8], 477.38 ± 1.1 Å²; under setting [9], 553.18 ± 2.9 Å². For the sequence “SGGGYGGDRGGGYGGDR [_SGGGYGGDR(Methyl (R))GGGYGGDR_]”, the collision cross section under setting [14] is 461.83 ± 3 Å².

In the case of “AAHGRGALAEAAR [_AAHGR(Citrullination (R))GALAEAAR_]”, the collision cross section turned out to be 378.79 ± 0.65 Å² (charge state: 2, modification: Citrullination (R)) and 458.38 ± 1.8 Å² (charge state: 3, modification: Citrullination (R)).

In the case of “SLFFGGKGAPLQR [_SLFFGGK(GlyGly (K))GAPLQR_]”, the collision cross section amounted to 414.92 ± 0.35 Å² under setting [15] and 468.6 ± 1.1 Å² under setting [16]. The sequence “IPQEKCILQTDVK [_IPQEK(Gluratylation)CILQTDVK_]” gave a collision cross section under setting [4] of 437.23 ± 0.96 Å².

DDSNLYINVK [_DDSNLY(Nitro (Y))INVK_] returned a collision cross section under setting [17] of 367.46 ± 0.55 Å². The sequence GSLEKGSPEDK [_GSLEK(GlyGly (K))GSPEDK_] registered a collision cross section under setting [15] of 367.44 ± 0.9 Å² and a collision cross section under setting [16] of 425.67 ± 1.6 Å².

The sequence “SLIGKVDGTSHVTGK [_SLIGKVDGTSHVT(HexNAc (ST))GK_]” gave a collision cross section under setting [18] of 501.68 ± 0.18 Å².

Consider “GTVPDDAVEALADSLGKK [_GTVPDDAVEALADSLGK(Formyl)K_]”, for which the collision cross section is listed as 449.34 ± 1.3 Å² under setting [6] and 523.67 ± 1.8 Å² under setting [7]. Regarding “LSFGLEDEPLETATK [_LSFGLEDEPLET(HexNAc (ST))ATK_]”, the collision cross section is, setting by setting: under setting [19], 457.66 ± 0.56 Å²; under setting [18], 480.97 Å².

Regarding LGNDFHTNKR [_LGNDFHTNK(Succinyl)R_], the collision cross section reads like this: under setting [20], 377.52 ± 0.24 Å²; under setting [21], 436.15 ± 2.9 Å². Regarding “VEPGSLESSPGLGRGR [_VEPGSLESSPGLGR(Methyl (R))GR_]”, the collision cross section under setting [14] stood at 499.14 ± 2.2 Å². On to “DLGKFQVATDALK [_DLGK(Malonyl)FQVATDALK_]”, for which, under setting [1], the collision cross section is 406.38 ± 0.61 Å².

In the case of LTEKELAEAASK [_LTEK(Butyryl)ELAEAASK_], the collision cross section is given as 394.05 ± 1.5 Å² under setting [8] and 455.88 Å² under setting [9]. Consider “ANEKTESSSAQQVAVSR [_ANEK(Biotin)TESSSAQQVAVSR_]”, for which the collision cross section under setting [22] is given as 464.95 ± 0.23 Å² and the collision cross section under setting [23] came out at 569.61 ± 0.95 Å². On to “GFLQPPPLRQPR [_GFLQPPPLR(Methyl (R))QPR_]”, for which the collision cross section came to 399.75 Å² (charge state: 2, modification: Methyl (R)) and 450.22 ± 3.5 Å² under setting [14]. For “ANEKTESSSAQQVAVSR [_ANEK(Acetyl (K))TESSSAQQVAVSR_]”, the collision cross section is 433.42 ± 1.8 Å² under setting [24] and 527.9 ± 0.37 Å² under setting [25]. On to “VNIGQGSHPQKVK [_VNIGQGSHPQK(Acetyl (K))VK_]”, for which the collision cross section reads like this: under setting [24], 426.92 ± 2.1 Å²; under setting [25], 478.98 ± 3.2 Å². With “DSSPTTNSKLSALQR [_DSSPTTNSK(hydroxyisobutyryl)LSALQR_]”, the collision cross section by setting is: under setting [11], 437.4 ± 0.29 Å²; under setting [26], 502.1 ± 2.1 Å². For “PGLKGEQGEPGAPGIR [_PGLKGEQGEPGAP(Hydroxyproline)GIR_]”, the collision cross section under setting [10] is 410.74 ± 0.55 Å² and the collision cross section (charge state: 3, modification: Hydroxyproline) is reported as 508.4 ± 1.3 Å². Regarding “GFALVGVGSEASSKK [_GFALVGVGSEASSK(Crotonyl)K_]”, the collision cross section was determined as 448.38 ± 0.94 Å² under setting [12] and 499.08 ± 1.9 Å² under setting [13]. Under setting [6], “DLSTVEALQNLKNLK [_DLSTVEALQNLK(Formyl)NLK_]” showed a collision cross section of 474.81 ± 0.7 Å². On to “GGPGSTLSFVGKR [_GGPGSTLSFVGK(Malonyl)R_]”, for which the collision cross section under setting [1] is on record as 380.38 ± 0.0061 Å². Turning to “GEVGAGAGPGAQAGPSAKR [_GEVGAGAGPGAQAGPSAK(Butyryl)R_]”, the collision cross section under setting [8] was found to be 426.32 ± 1.1 Å² and the collision cross section under setting [9] turned out to be 483.04 ± 4.4 Å².

As for “VLTANSNPSSPSAAKR [_VLTANSNPSSPSAAK(hydroxyisobutyryl)R_]”, the collision cross section is, setting by setting: under setting [11], 434.9 ± 0.8 Å²; under setting [26], 533.81 ± 2 Å². Under setting [3], “AGQKLIDVNHYAK [_AGQK(Dimethyl (K))LIDVNHYAK_]” came in with a collision cross section of 472.93 ± 1.2 Å².

On to “VQGGALEDSQLVAGVAFKK [_VQGGALEDSQLVAGVAFK(Trimethyl (K))K_]”, for which the collision cross section is 515.46 ± 1.1 Å² under setting [27] and 564.46 ± 0.92 Å² under setting [28]. In the case of “IHVQSSSDSSDEPAEKR [_IHVQSSSDSSDEPAEK(Acetyl (K))R_]”, the collision cross section runs as follows: under setting [24], 446.96 ± 2.2 Å²; under setting [25], 501.64 ± 1.1 Å². Take “LQDVSGQLSSSKK [_LQDVSGQLSSSK(Crotonyl)K_]”: the collision cross section is given as 402.23 ± 0.9 Å² under setting [12] and 469.03 ± 3.7 Å² under setting [13]. Take “AAQASDLEKIHLDEK [_AAQASDLEK(Succinyl)IHLDEK_]”: the collision cross section reads like this: under setting [20], 468.29 ± 1.1 Å²; under setting [21], 505.3 ± 1.6 Å². For the sequence “VLTANSNPSSPSAAKR [_VLTANSNPSSPSAAK(Trimethyl (K))R_]”, the collision cross section by setting is: under setting [27], 445.51 ± 0.016 Å²; under setting [28], 518.89 ± 1.6 Å². Consider INNFSADIKDSK [_INNFSADIK(Crotonyl)DSK_], for which the collision cross section reads like this: under setting [12], 405.9 ± 0.28 Å²; under setting [13], 458.84 ± 1.6 Å². For “FLQEFYQDDELGKK [_FLQEFYQDDELGK(Dimethyl (K))K_]”, the collision cross section runs as follows: under setting [2], 456.43 ± 1.8 Å²; under setting [3], 499.62 ± 0.75 Å².

The sequence DLGKFQVATDALK [_DLGK(Biotin)FQVATDALK_] gave a collision cross section under setting [22] of 425.47 ± 0.89 Å².

“LAPEYEAAATR [_LAPEY(Phospho (Y))EAAATR_]” showed a collision cross section under setting [29] of 374.2 ± 0.063 Å². As for “ANLEKAQAELVGTADEATR [_ANLEK(Gluratylation)AQAELVGTADEATR_]”, the collision cross section under setting [4] was found to be 478.84 ± 1.4 Å² and the collision cross section under setting [5] amounted to 584.83 ± 0.77 Å². As to LGPNDQYK [_LGPNDQY(Phospho (Y))K_], under setting [29], the collision cross section was found to be 336.82 ± 0.067 Å².

Under setting [14], “SGGGYGGDRSSGGGYSGDR [_SGGGYGGDR(Methyl (R))SSGGGYSGDR_]” showed a collision cross section of 484.52 ± 1.5 Å². Take “IVSGKDYNVTANSK [_IVSGK(Succinyl)DYNVTANSK_]”: under setting [20], the collision cross section is listed as 411.09 ± 0.54 Å². Under setting [19], “LSQEDPDYGIR [_LS(HexNAc (ST))QEDPDYGIR_]” showed a collision cross section of 396.72 ± 0.76 Å². KFGVLSDNFK [_K(Biotin)FGVLSDNFK_] returned a collision cross section under setting [22] of 394.71 ± 3.8 Å². As to IQQELQTAKK [_IQQELQTAK(Biotin)K_], the collision cross section reads like this: under setting [22], 397.29 ± 2.2 Å²; under setting [23], 468.38 ± 0.34 Å². Turning to GAEKTEVAEPR [_GAEK(Acetyl (K))TEVAEPR_], the collision cross section under setting [24] is given as 370.22 ± 7.6 Å². On to LYDIDVAK [_LY(Nitro (Y))DIDVAK_], for which, under setting [17], the collision cross section is 344.32 ± 0.56 Å². On to “SGNLTEDDKHNNAK [_SGNLTEDDK(Gluratylation)HNNAK_]”, for which the collision cross section was 428.34 ± 1.5 Å² under setting [4] and 486.64 ± 2.8 Å² under setting [5].
